Target: human SMG-1 (hSMG-1) (human, UniProt Q96Q15 1-3661, limits assumed)
Assay: cell-based or functional assay

Sequence of human SMG-1 (hSMG-1) (Q96Q15 whole entry): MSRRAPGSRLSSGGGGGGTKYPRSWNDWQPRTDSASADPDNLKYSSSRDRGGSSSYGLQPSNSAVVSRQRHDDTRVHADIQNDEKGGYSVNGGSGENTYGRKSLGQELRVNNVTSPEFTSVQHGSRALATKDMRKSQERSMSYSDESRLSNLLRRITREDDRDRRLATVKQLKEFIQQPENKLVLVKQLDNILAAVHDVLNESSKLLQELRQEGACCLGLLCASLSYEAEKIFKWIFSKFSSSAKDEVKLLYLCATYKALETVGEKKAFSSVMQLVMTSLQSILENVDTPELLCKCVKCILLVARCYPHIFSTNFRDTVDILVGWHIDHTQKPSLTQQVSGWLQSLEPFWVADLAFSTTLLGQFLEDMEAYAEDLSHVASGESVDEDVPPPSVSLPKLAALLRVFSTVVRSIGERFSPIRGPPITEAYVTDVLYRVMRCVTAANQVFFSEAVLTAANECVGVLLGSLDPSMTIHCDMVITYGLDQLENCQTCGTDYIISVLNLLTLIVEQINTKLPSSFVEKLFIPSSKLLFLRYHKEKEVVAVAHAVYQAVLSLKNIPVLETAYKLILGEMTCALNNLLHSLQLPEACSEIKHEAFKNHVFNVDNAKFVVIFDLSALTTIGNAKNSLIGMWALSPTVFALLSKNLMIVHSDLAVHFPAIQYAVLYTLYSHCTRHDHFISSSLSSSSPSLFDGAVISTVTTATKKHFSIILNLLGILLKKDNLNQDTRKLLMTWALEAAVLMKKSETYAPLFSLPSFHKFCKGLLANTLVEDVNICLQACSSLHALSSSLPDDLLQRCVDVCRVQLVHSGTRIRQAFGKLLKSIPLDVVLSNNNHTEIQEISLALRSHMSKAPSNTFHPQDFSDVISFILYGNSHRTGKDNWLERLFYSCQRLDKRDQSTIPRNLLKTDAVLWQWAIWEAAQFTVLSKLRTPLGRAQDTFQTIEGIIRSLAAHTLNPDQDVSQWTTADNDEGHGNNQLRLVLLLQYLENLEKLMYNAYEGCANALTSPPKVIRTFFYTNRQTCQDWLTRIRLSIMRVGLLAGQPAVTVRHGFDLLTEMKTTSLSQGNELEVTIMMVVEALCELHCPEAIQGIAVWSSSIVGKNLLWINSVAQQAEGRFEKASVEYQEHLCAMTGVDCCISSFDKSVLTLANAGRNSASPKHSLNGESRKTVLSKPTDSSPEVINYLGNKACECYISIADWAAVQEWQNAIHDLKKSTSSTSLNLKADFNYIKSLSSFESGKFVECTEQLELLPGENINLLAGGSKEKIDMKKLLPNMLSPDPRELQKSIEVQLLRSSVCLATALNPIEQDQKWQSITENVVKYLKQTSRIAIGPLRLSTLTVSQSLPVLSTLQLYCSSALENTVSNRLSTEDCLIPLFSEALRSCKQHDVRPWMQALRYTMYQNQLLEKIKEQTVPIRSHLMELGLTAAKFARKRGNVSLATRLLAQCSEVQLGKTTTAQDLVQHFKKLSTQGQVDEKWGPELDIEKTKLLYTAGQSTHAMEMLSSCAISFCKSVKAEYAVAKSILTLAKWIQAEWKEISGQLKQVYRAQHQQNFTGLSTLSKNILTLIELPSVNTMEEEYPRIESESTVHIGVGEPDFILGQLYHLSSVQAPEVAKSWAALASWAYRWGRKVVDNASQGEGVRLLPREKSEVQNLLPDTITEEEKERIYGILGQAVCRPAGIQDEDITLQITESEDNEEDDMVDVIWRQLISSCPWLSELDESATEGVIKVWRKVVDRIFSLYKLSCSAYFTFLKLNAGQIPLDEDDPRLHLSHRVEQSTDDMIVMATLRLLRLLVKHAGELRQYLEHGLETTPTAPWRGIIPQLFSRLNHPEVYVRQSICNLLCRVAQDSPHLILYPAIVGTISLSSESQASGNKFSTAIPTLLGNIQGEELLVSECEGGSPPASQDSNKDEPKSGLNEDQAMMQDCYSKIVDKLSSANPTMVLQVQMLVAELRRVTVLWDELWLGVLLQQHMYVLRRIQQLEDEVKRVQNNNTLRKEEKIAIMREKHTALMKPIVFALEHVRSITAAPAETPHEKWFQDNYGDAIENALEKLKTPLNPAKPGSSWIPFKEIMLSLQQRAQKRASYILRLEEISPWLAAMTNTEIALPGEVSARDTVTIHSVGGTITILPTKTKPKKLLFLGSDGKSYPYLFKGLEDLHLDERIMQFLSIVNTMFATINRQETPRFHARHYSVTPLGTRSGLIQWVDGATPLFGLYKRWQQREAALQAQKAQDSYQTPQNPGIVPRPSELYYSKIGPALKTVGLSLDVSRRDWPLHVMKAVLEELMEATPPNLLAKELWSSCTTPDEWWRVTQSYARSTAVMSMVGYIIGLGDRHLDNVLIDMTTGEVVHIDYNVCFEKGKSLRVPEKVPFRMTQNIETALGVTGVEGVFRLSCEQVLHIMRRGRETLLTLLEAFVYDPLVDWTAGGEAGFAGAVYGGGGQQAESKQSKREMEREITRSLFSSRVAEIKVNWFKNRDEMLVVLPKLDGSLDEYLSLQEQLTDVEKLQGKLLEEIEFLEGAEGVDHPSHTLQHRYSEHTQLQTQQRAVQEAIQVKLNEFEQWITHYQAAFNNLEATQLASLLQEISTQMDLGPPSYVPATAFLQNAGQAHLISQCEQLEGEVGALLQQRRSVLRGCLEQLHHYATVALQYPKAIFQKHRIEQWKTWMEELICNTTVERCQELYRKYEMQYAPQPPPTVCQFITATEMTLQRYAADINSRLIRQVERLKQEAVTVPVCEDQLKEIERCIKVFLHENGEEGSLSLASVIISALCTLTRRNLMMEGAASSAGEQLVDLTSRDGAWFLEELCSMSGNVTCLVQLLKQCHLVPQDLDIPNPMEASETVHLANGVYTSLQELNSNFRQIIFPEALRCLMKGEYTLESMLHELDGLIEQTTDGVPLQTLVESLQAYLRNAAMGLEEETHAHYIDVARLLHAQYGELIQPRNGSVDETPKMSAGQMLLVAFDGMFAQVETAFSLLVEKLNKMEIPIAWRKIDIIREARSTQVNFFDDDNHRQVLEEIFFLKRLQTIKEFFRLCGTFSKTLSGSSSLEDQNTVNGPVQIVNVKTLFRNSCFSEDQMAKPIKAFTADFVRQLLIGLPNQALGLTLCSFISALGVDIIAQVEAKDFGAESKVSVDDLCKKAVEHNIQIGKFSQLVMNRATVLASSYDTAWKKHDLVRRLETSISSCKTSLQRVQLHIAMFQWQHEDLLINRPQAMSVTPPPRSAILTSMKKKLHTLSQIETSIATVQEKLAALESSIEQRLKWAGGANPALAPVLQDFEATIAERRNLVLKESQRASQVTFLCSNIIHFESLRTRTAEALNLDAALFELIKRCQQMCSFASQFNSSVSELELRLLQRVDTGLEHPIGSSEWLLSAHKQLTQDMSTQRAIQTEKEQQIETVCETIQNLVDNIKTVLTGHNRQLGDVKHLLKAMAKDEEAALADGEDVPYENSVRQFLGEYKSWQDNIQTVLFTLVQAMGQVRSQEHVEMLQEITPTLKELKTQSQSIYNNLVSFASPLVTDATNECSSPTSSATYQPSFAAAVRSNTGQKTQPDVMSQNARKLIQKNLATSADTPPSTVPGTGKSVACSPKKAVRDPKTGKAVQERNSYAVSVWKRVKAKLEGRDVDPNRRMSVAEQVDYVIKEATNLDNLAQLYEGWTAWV

- phosphorylation of hUPF1 (P-hUPF1/hUPF1) in HeLa TetOff cells transfected with siRNA against p130, relative to control siRNA: ~40%
B1: SMGBP1 (SMG Binding Protein 1) (other)
chain: MAGPVSLRDLLMGASAWMGSESPGGSPTEGGGSAAGGPEPPWREDEICVVGIFGKTALRLNSEKFSLVNTVCDRQVFPLFRHQDPGDPGPGIRTEAGAVGEAGGAEDPGAAAGGSVRGSGAVAEGNRTEAGSQDYSLLQAYYSQESKVLYLLLTSICDNSQLLRACRALQSGEAGGGLSLPHAEAHEFWKHQEKLQCLSLLYLFSVCHILLLVHPTCSFDITYDRVFRALDGLRQKVLPLLKTAIKDCPVGKDWKLNCRPCPPRLLFLFQLNGALKVVPPRNQDPAHPDKPKKHSPKRRLQHALEDQIYRIFRKSRVLTNQSINCLFTVPANQAFVYIVPGSQEEDPVGMLLDQLRSHCTVKDPESLLVPAPLSGPRRYQVMRQHSRQQLSFHIDSSSSSSSGQLVDFTLWEFLWQHVELVLSKKGFDDSVGRNPQPSHFELPTYQKWISAASKLYEVAIDGKEEDLGSPTGELTSKILSSIKVLEGFLDIDTKFSENRCQKALPMAHSAYQSNLPHNYTMTVHKNQLAQALRVYSQHARGPAFHKYAMQLHEDCYKFWSNGHQLCEERSLTDQHCVHKFHSLPKSGEKPEADRNPPVLYHNSRARSTGACNCGRKQAPRDDPFDIKAANYDFYQLLEEKCCGKLDHINFPVFEPSTPDPAPAKNESSPAPPDSDADKLKEKEPQTQGESTSLSLALSLGQSTDSLGTYPADPQAGGDNPEVHGQVEVKTEKRPNFVDRQASTVEYLPGMLHSNCPKGLLPKFSSWSLVKLGPAKSYNFHTGLDQQGFIPGTNYLMPWDIVIRTRAEDEGDLDTNSWPAPNKAIPGKRSAVVMGRGRRRDDIARAFVGFEYEDSRGRRFMCSGPDKVMKVMGSGPKESALKALNSDMPLYILSSSQGRGLKPHYAQLMRLFVVVPDAPLQIILMPQVQPGPPPCPVFYPEKQEITLPPDGLWVLRFPYAYVTERGPCFPPKENVQLMSYKVLRGVLKAVTQ
